{"source": "patent US20080145931A1", "about": "“Mature Dendritic Cell Compositions and Methods of Culturing Same” (Argos Therapeutics, Inc., priority 2004, published 2008)", "molecules": {"B1": {"name": "IFN-γ: IFN-γ purchased from R&D Systems, first maturation signal (protein, listed as Homo sapiens)", "chain": "MKYTSYILAFQLCIVLGSLGCYCQDPYVKEAENLKKYFNAGHSDVADNGTLFLGILKNWKEESDRKIMQSQIVSFYFKLFKNFKDDQSIQKSVETIKEDMNVKFFNSNKKKRDDFEKLTNYSVTDLNVQRKAIHELIQVMAELSPAAKTGKRKRSQMLFQGRRASQ"}}, "key": {"DCs [1]": {"test_system": "DCs", "test": "IL-12p70 and IL-10 secretion by DCs undergoing maturation (ELISA of culture supernatants)", "type": "cell-based, human", "protocol": "Human PBMCs were isolated from Leukapheresis collections from healthy volunteers provided by Life Blood (Memphis, Tenn.). PBMCs were prepared by Ficoll-Histopaque density centrifugation and washed four times in PBS at room temperature. 2×10^8 PBMCs were re-suspended in 30 ml AIM-V medium and allowed to adhere to […] plastic flasks for 2 hours at 37° C. Non-adherent cells were removed and remaining cells cultured in X-VIVO 15 medium, supplemented with GM-CSF (1000 U/ml) and IL-4 (1000 U/ml), for 5-6 days at 37 C, 5% CO2.\nPrior to electroporation, DCs were harvested and washed in PBS and then re-suspended in chilled Viaspane (Barr Laboratories) at 4×10^7/ml in 0.5 ml or 2.5×10^7/ml in 0.2 ml and placed on ice. DCs were mixed with mRNA (1 or 2 μg/10^6 for mRNA encoding antigen and 4 μg/10^6 for CD40L mRNA) and placed in a 4 mm gap electroporation cuvette and electroporated using Biorad apparatus. Immediately after electroporation, DCs were washed in X-VIVO 15 medium and finally re-suspended in X-VIVO 15 supplemented with GM-CSF (800 U/ml) and IL-4 (500 U/ml) at 1×10^6/ml and cultured for either 4 or 24 hours at 37° C. in low adherence six well plates (BD Biosciences, Franklin Lakes, N.J.). Additional maturation stimuli, described below, were also added at this point.\nFollowing electroporation, DCs transfected with CD40L mRNA were treated with IFN-γ (1000 U/ml) or TNF-α (10 ng/ml) or a combination of IFN-γ and PGE2 (1 μg/ml). By comparison, immature DCs were transfected with various antigen-encoding mRNAs and were then treated with a “cytokine cocktail” comprising of TNF-α (10 ng/ml), IL-1β (10 ng/ml), IL-6 (100 ng/ml) and PGE2 (1 μg/ml) or soluble CD40L (200 ng/ml) plus enhancer (1 μg/ml) with either simultaneous or sequential addition of 1000 U/ml IFN-γ.\nThe method as laid out by BD Pharmingen for IL-12 and IL-10 ELISA sets (BD Pharmingen) using BD Opt EIA reagent set B pH 9.5. Briefly, ELISA plates (BD Biosciences) were coated with anti-IL-12p70 or anti-IL-10 ELISA capture antibody in coating buffer for 24 hours at 4° C. Plates underwent blocking with 200 μl per well 10% FCS/PBS for one hour prior to the addition of standards (BD Pharmingen) and supernatant samples, in duplicate, at 100 μl per well and incubated at room temperature for 2 hours. Plates were washed and anti-cytokine detection antibody added, incubated for one hour, the plates washed and solutions replaced with 100 μl of streptavidin-HRP and further incubated for one hour at room temperature. […] Plate analysis undertaken using Bio-Tek instruments ELx800 plate reader with KC junior software (Winooski, Vt.). […] Because the assays were set up so that 1 ml corresponds to 10^6 DCs, the results can also be expressed as number of picograms/10^6 DCs. […]"}, "DCs [2]": {"test_system": "DCs", "test": "Transwell migration assay of DCs to lymph node chemokines CCL19 and 21", "type": "cell-based, human", "conditions": "1 μg/ml PGE2 in addition to IFN-γ, CD40L mRNA transfected DCs; FIG. 8", "protocol": "Chemotaxis of DCs was measured by migration through a 8 μm pore size polycarbonate filter in 24 well transwell chambers (coming Costar, Acton, MA). 5% human AB serum in Iscoves modified Dulbecco's medium or AIM-V medium containing 3-300 ng/ml CCL19, 5-250 ng/ml CCL21, a combination of both or medium alone was added to the lower chamber. 1−5×10^5 DCs in 0.1 ml were added to the upper chamber and incubated for 2-3 hours at 37° C. Lower chamber harvested into 5 ml tubes (BD Biosciences) and re-suspended in 0.1 ml PBS and viable cell counts undertaken using trypan blue."}, "[3]": {"target": "human CD40 (the receptor for CD40L) on monocyte-derived dendritic cells (human) (UniProt P25942)", "sequence (P25942 21-277 limits assumed)": "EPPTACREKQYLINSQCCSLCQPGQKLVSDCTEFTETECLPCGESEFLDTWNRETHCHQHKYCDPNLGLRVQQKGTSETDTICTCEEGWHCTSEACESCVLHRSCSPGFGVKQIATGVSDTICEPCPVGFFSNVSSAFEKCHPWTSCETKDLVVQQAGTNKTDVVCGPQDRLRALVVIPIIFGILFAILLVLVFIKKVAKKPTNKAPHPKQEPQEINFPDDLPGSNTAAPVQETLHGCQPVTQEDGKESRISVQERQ", "test": "cell-based or functional assay"}, "[4]": {"target": "human CD40L protein translated from transfected CD40L mRNA (CD40L WT, >400 nucleotide polyA tail) (human) (UniProt P29965)", "test": "cell-based or functional assay"}, "MART reactive T-cells": {"test_system": "MART reactive T-cells", "test": "Induction of MART-1 specific CTLs in PBMC cultures, MART-1/HLA-A2 tetramer staining", "type": "cell-based, human", "conditions": "KRN7000 pulsed on MART-1 mRNA transfected DC, versus vehicle; FIG. 15b", "protocol": "(§1) 100 ng/ml of KRN7000 was pulsed onto the CD40L base process DCs immediately post electroporation in combination with 500 U/ml IFN-γ and 1 μg/ml PGE2, for 24 hrs of culture.\n(§2) DCs were generated as described above, employing the ‘CD40L base process’, and loaded with mRNA encoding MART-1. Post electroporation, DCs were incubated with KRN7000, IFN-γ and PGE2. DCs and PBMCs were co-cultured at a 1:10 ratio in the presence of 20 U/ml IL-2. PBMCs were restimulated three times under the same conditions, and the frequency of CTL induction determined by staining with MART-1/A2 tetramers, and the expansion of NKT-cells enumerated using KRN7000/CD1d tetramers by FACS."}, "NKT-cells": {"test_system": "NKT-cells", "test": "Expansion of NKT-cells in PBMC cultures, CD1d/KRN7000 tetramer staining", "type": "cell-based, human", "conditions": "100 ng/ml KRN7000 pulsed on MART-1 mRNA-loaded CD40L base process DCs, versus vehicle; FIG. 15a", "protocol": "as §1, §2"}}}
{"molecule": "TNF-α", "values": [{"measurement": "IL-12 production", "setting": "DCs [1]; 10 ng/ml TNF-α substituted for IFN-γ, CD40L mRNA transfected DCs, FIG. 5b", "value": "supports IL-12 production, but at reduced levels"}]}
{"molecule": "pCR2.1 CD40L WT Delta X-E: CD40L RNA transcribed from plasmid modified by removal of XbaI-EcoRV fragment with three cryptic ATG codons (sense GCATGATCGAAACATACAACC; RNA transcript of DNA sequence, chemistry not fully specified)", "values": [{"measurement": "induction of IL-12 expression by transfected DCs", "setting": "DCs [1]; two independent DC transfection experiments, about 20 hrs post transfection, FIG. 18", "value": "performed better than the current CD40L reference standard"}]}
{"molecule": "CCCCC[C@H](O)/C=C/[C@H]1[C@H](O)CC(=O)[C@@H]1C/C=C\\CCCC(=O)O", "note": "[PGE2]", "values": [{"measurement": "DC migration", "setting": "DCs [2]", "value": "enables the maturing DCs to migrate"}]}
{"molecule": "human CD40L protein translated from transfected CD40L mRNA (CD40L WT, >400 nucleotide polyA tail) (from UniProt P29965 1-261) (ligand)", "values": [{"measurement": "IL-12p70 (pg/ml), \"Cocktail\" matured and reactivated DCs co-cultured with HeLa/>400 polyA + IFN-γ", "setting": "[3]", "value": 26.3, "unit": "pg/mL"}, {"measurement": "IL-12p70 (pg/ml), immature DCs co-cultured with HeLa/>400 polyA + IFN-γ", "setting": "[3]", "value": 372, "unit": "pg/mL"}]}
{"molecule": "blocking CD40L monoclonal antibody 24-31 (eBioscience)", "values": [{"measurement": "IL-12p70 (pg/ml), \"Cocktail\" matured and reactivated DCs co-cultured with HeLa/>400 polyA + IFN-γ + 24-31", "setting": "[4]", "value": 2.5, "unit": "pg/mL"}, {"measurement": "IL-12p70 release from CD40L-mRNA-transfected DCs cultured with IFN-γ and 10 or 50 µg/ml blocking anti-CD40L antibody", "setting": "[4]", "value": 50, "unit": "%"}]}
{"molecule": "CCCCCCCCCCCCCCCCCCCCCCCCCC(=O)N[C@@H](CO[C@H]1O[C@H](CO)[C@H](O)[C@H](O)[C@H]1O)[C@H](O)[C@H](O)CCCCCCCCCCCCCC", "note": "[KRN7000, (2S,3S,4R)-1-O-(alpha-D-galactopyranosyl)-2-(N-hexacosanoylamino)-1,3,4-octadecanetriol]", "values": [{"measurement": "frequency of MART reactive T-cells", "setting": "MART reactive T-cells", "value": "significantly increases the frequency of MART reactive T-cells"}, {"measurement": "frequency of NKT-cells in PBMC cultures", "setting": "NKT-cells", "value": "increase the frequency of NKT-cells"}]}
{"molecule": "B1", "values": [{"measurement": "IFN-γ required to support optimal induction of IL-12p70", "setting": "DCs [1]; DCs transfected with 4 μg CD40L mRNA per million cells, FIG. 4", "value": "at least 100 U/ml"}, {"measurement": "IL-10 production", "setting": "DCs [1]; IFN-γ versus TNF-α as co-maturation factor, CD40L mRNA transfected DCs, FIG. 5c", "value": "lower levels of IL-10 production than does TNF-α"}]}
